The source of these data is patent US20150111814A1.

The test deals with HIV-1 BaL envelope protein spike (Env) on virions (HIV-1 BaL strain). The experiment in a line: cell-based or functional assay.

For “MVN-DAVEI8 (microvirin-linker-MPER fusion)”, the EC50 of virolysis (% p24 release) worked out at 780 nM.
